Consider five molecules from publication PMC5648196, “The transcriptional regulator LysG (Rv1985c) of Mycobacterium tuberculosis activates lysE (Rv1986) in a lysine-dependent manner”.

Data set [1] concerns the target T1, LysG(Mt) (Mycobacterium tuberculosis) (UniProt P9WMF5).
T1 sequence: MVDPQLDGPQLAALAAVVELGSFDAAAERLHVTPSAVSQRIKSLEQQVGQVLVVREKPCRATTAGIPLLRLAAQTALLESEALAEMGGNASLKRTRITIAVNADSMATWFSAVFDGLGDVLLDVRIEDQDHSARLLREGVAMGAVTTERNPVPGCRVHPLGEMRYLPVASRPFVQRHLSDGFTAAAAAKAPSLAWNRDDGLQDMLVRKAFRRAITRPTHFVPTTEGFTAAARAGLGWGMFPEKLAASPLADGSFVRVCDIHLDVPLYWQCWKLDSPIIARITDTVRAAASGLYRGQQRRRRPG
The experiment in a line: EMSA. A general note: A gel shift assay detects complexes by their altered migration in electrophoresis.

Data set [2] has as its target T2, LysG(Mt) (Mycobacterium tuberculosis, UniProt P9WMF5 1-303).
T2 sequence: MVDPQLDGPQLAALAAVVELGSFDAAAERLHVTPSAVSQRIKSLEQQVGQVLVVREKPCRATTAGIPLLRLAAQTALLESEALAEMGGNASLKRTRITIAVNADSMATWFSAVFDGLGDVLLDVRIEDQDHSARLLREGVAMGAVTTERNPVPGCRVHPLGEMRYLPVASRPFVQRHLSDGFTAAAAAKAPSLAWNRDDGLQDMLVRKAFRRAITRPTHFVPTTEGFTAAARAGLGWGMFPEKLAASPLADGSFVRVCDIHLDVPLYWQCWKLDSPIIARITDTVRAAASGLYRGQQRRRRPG
The experiment in a line: EMSA; 200 pmole LysG, 10 fmole DNA. Particulars: protein: recombinant, tags: His6 (pQE30-LysG(Mt)x6His), chain copies: 4, blunt.

On to “TTCAGACCGGCACGTTTCAGAGCGGTGGGGATGTCCCGACGTGCGATCCGACAGGGGTTCGCAGGGTCCGCAAAAAACATAGTGAACGCCAGAAAGCCGAATGGGAGTACAAGGCGATGCCGGT (double strand) [oligonucleotide V (fadD26 upstream)]”, for which, in data set [1], the binding result is “no binding”.

As for “CGCTGCGGTCATTGTGTTCCTCTTAGTCGTTCCGAAAGTTGTTCCAACAACTCGGCTTCGGTCAGTTCGTGGTAGGAGTCGGTGGCTTGCTGGGTTGCGACTGCGGTTGCCCCAATTTCGAGGAGCTCAGGC (double strand) [oligonucleotide VII (ppsC upstream)]”, the binding result in data set [1] is given as “no binding”.

B1: oligonucleotide IV (dsDNA)
DNA 1: CGCACTGCACATTAATAATGCTAATGTAAATGAAGAATTATTAGCTATACTGAC
DNA 2: GTCAGTATAGCTAATAATTCTTCATTTACATTAGCATTATTAATGTGCAGTGCG
B1: the binding result in data set [2] (label: 5'-biotin on reverse strand (838)) is given as “binds”.

B2: oligonucleotide II (dsDNA)
DNA 1: CTCAGGTGTAGACCATCTGCGGAGCGTCGCACTGCACATTAATAATGCTAATGT
DNA 2: ACATTAGCATTATTAATGTGCAGTGCGACGCTCCGCAGATGGTCTACACCTGAG
In the case of B2, the binding result in data set [2] (label: 5'-biotin on reverse strand (834)) is on record as “no binding”.

B3: oligonucleotide III (dsDNA)
DNA 1: AAATGAAGAATTATTAGCTATACTGACCCATACAAACTGCCTAGTGTCGATTGC
DNA 2: GCAATCGACACTAGGCAGTTTGTATGGGTCAGTATAGCTAATAATTCTTCATTT
For B3, the binding result in data set [2] (label: 5'-biotin on reverse strand (836)) is “no binding”.
